# Test results: PMC7229763
# T1: BAF-WT (Homo sapiens, UniProt O75531 1-89)
# T1 sequence: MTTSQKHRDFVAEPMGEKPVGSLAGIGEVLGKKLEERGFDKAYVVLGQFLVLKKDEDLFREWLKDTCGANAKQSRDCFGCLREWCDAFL
# Biological target: T1, BAF-WT
# Test: ITC
binder,measurement,value
"ITC dsDNA (30 bp, same sequence as EMSA probe) (dsDNA) DNA 1: GAATCCTAACTGGGCGGAGTTATGCTGGTG DNA 2: CACCAGCATAACTCCGCCCAGTTAGGATTC",Ka,"1.89 ± 0.19 uM (as printed for KA; dimension inconsistent, possibly 10^6 M-1)"
